Each sequence was assayed on MS2 coat protein (assay: apparent KD of MS2 coat protein, switch OFF state (with FMN for OFF switches, without FMN for ON switches); designed switch direction (-1 OFF switch, 1 ON switch): -1; higher = weaker reporter binding). Conditions: FMN input: 0 or 200 uM; Eterna round: R93 (includes R88 designs).
How it was run: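 Designed RNA switches were transcribed on-chip from Illumina sequencing clusters. SNAP-549-labelled MS2 coat protein was titrated onto them in twofold steps from 0.7 or 1.5 nM to 3 µM in 100 mM Tris-HCl pH 7.5, 80 mM KCl, 4 mM MgCl2, either without or with constant ligand. Apparent KD reflects the per-design median of normalised cluster binding-curve fits.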

Row | Sequence | apparent KD of MS2 coat protein [nM]
1 | CUCUUGUGAGGAUAUGAAAGAAAAGAAAAGAAAGAAAAGAAUCAGAAGGCACAUGAGGAUCACCCAUGUAAGAA [EteRNA is fun!] | 79.7
2 | AAAAAACAUGAGGAUCACCCAUGUGAGGAUAUGUGAAAAAAAAAAUAAAAAAAAAAAAGCAGAAGGUACAAAAA [LROPPY Exclusion 1 - v03_deltaG=3.94] | 39.9
3 | AAGAACGUAGGAUAUACUAAAGAAAUGAAAAGAAAUAAAGAACAUGAGGAUCACCCAUGUAGAAGGACGAAGAA [Nebdjefare] | 25.2
4 | AAGAACUCAGGAUAUACUAAAGAAAUGAAAAGAAAGAAAGAACAUGAGGAUCACCCAUGUAGAAGGGAGAAGAA [Qareh Khawoserre] | 35.4
5 | AAGGGACAUGAGGAUCACCCAUGUGAGGAUAUGCUAUGGAAAUAAAAAAUAAAACAUAGCAGAAGGCAUAAAAA [Mat - Exclusion 1 - Eli mod - D38] | 60.5
6 | AAGAAACAUGAGGAUCACCCAUGUGAGGAUAUUCAAGAAAGAAAGAAAGAAAGAAGAAGAAGAAGGCACAAAGG [Lucius Seius Strabo] | 32
7 | AAAACUGGAGGAUAUACAUGAGGAUCACCCAUGUGUGGGUAUACUGUGUCGGCGUCAGGUAGAAGGCCAAAAAA [Gilly Gone Silly 29 - Jieux - Exclusion 3] | 151
8 | AAGACUACAGGAUAUACAUGAGGAUCACCCAUGUAACUGACAAGUAGAUGACGGAGAAGUAGAAGGGUAGUCAA [Ruby 36] | 31.8
9 | CAAGGUGGAGGAUAUACAUGAGGAUCACCCAUGUAAGGACAAUAAAUAAGAUGAAGAAGUAGAAGGCCACUCAA [e3-3] | 42.1
10 | UAAAAACAUGAGGAUCACCCAUGUAAGGAUAUGCUGAAAAACACGGAAAAAACGUGCAGCAGAAGGUACAAAAU [Mat - Exclusion 1 - Eli mod - D98] | 47.6
11 | AAGAAGUCAGGAUAUGCUGCUCGUCACAAAAGUGAUGAGUAGCAGAAGGGACAUGAGGAUCACCCAUGUAAAAA [Opal 33] | 42
12 | AAAUAGCAAGGAUAUACAUGAGGAUCACCCAUGUGACCCAGGUAUGGCAUAGACUAGAGUAGAAGGUGCAAAUA [Mod 5 of Ex 3 Tesla 8 - Jieux - Exclusion 3] | 114
13 | CUCUUGUAAGGAUAUGACUACAUAAAAAAAAAAAAAUGUAGUCAGAAGGUACAUGAGGAUCACCCAUGUACUAA [Brourd - Exclusion 4 - Sub 2] | 26.2
14 | AAAAAGUGAGGAUAUGCAGUGUCCUGUAGACGCGAGCACUUGUAGAAGGCACAUGAGGAUCACCCAUGUUUAAA [EX4 Malc#28] | 22.1
15 | AACUGACAUGAGGAUCACCCAUGUCAGGAUAUGCUUCAUAAAAACAAACAAAAAUGAUGCAGAAGGGACAUGGA [Design 30 :P Sub-opt 6] | 32.3
16 | AACUGACAUGAGGAUCACCCAUGUCAGGAUAUGACUUCGAAAAAUAAAAUAAACGAUGUCAGAAGGGACAUGGG [Design 68: Sub-opt O] | 19
17 | AAGCCACAUGAGGAUCACCCAUGUAAGGAUAUGAACGAAAAUAAAUAAAAAUAAAAGUUCAGAAGGUACAAAAA [66%, Wbt, 23] | 25.3
18 | AACAAGACAGGAUAUACAUGAGGAUCACCCAUGUCACAACAAAGCAGCGCAACACAAAGUAGAAGGGUCAUGGA [Ruby 11] | 82.6
19 | AACUGGUGAGGAUAUCUGGAUAGGAAAAAGAAAACCUAUCCAGAGAAGGCACAUGAGGAUCACCCAUGUAAAAA [JL cataway mod 9] | 51.9
20 | AAAAUGUCAGGAUAUGUAGCAAAAGGUGAUCAAAAAAAGCUACAGAAGGGACAUGAGGAUCACCCAUGUAAAAA [Ex4: 935] | 2870
21 | AGGGAGUCAGGAUAUCGGAAAAAAAAACAACGAAAAAAAGACGAGAAGGGACAUGAGGAUCACCCAUGUAAGAA [milkweed 16] | 23.5
22 | GACACCGGAGGAUAUACAAGUCCUUACUGUCUAAAACCAUGACAUGAGGAUCACCCAUGUAGAAGGCCGAAAAG [Atbela] | 118

Row | Sequence | apparent KD of MS2 coat protein [nM]
23 | AAAAGUGGAGGAUAUACAUGAGGAUCACCCAUGUGUAAAAAUAAAUACACAAAAGAAAGUAGAAGGCCACAAAG [Mat - Exclusion 3 - Mayanna mod - D117] | 128
24 | AAGAUCAGAGGAUAUACAGAAGGUGAUGAAAACAUCGCCAAACAUGAGGAUCACCCAUGUAGAAGGCUGAUCAA [JL EX2 2] | 204
25 | CAGUACUGAGGAUAUACAUGAGGAUCACCCAUGUGGUCCAGCUAGGAAACUAGCACGUGUAGAAGGCAGUACUG [Ex3: 840] | 20
26 | AAAAGGUGAGGAUAUAUGAAAAAAAAAAAAAAAAAAAAAAAAUAGAAGGCACAUGAGGAUCACCCAUGUAAAAA [LROPPY Exclusion 4 - v04_ on a whim] | 27.2
27 | AACAAACAUGAGGAUCACCCAUGUAAGGAUAUGCGACAAAAACAAAAAACAAAAAAAAGCAGAAGGUACAACAA [Amethyst 100] | 30.4
28 | GCUUGUCUAGGAUAUACAUGAGGAUCACCCAUGUGAGAGAAAAAAGUGAGAAAGAAAAGUAGAAGGAGGUGAGG [salish99-ex3-81] | 29.7
29 | AAAAAUGGAGGAUAUACAUGAGGAUCACCCAUGUGUGACUAUACUAAGCGCUCCUCAGGUAGAAGGCCAAAAAA [Gilly Gone Silly 16 - Jieux - Exclusion 3] | 99.5
30 | AAAGUGUGAGGAUAUGUCAAAGGUCACGAAAGUGACAAAGGACAGAAGGUACAUGAGGAUCACCCAUGUAAAAA [65% + different segment] | 32
31 | AGCUAGAGAGGAUAUACAUAAAAAAAAAAAGUCUGAUCCCUACAUGAGGAUCACCCAUGUAGAAGGCUCUGGCA [Ex2 Design 157: Sub-opt 21] | 38.5
32 | AAGAAGGGAGGAUAUACAAAAUAAAAGAAAAGAAAGAAAGAACAUGAGGAUCACCCAUGUAGAAGGUCCAAGAA [Imyremeshaw] | 71
33 | AAAAAACAUGAGGAUCACCCAUGUGAGGAUAUCGAGAAGAAGAAGAAGAAGAAGAGAACGAGAAGGCACAAAAA [Exclusion 1 - G's] | 29.9
34 | AACAGACAUGAGGAUCACCCAUGUGAGGAUAUCCCAAUCGAUAGAACUAGAAUGACAAGGAGAAGGCACAGCAA [JR_Exc001_Sub005] | 70.1
35 | AAAUUAGGAGGAUAUACAUGAGGAUCACCCAUGUGACGAUGUUACUGCAUGAAGCCAAGUAGAAGGUCUAAGAA [Lacelaatdi] | 49.5
36 | AGGAAACAUGAGGAUCACCCAUGUCAGGAUAUUGAAAAGAAAAGAAAAGAAAGAAGAACAAGAAGGGACAAGAA [Mekh] | 20.6
37 | AGUUGGCGAGGAUAUACAUGAGGAUCACCCAUGUGAGAGAAAUAAGUGAGAAAGAAAAGUAGAAGGCGCUCACA [JL Lego Mod 17] | 47.4
38 | AAGAAGCAAGGAUAUACAUGAGGAUCACCCAUGUAAAAGAAAGAAAAGGGAAAGAAAAGUAGAAGGUGCGAAAA [Ruby 70] | 51.9
39 | AGAAAACAUGAGGAUCACCCAUGUAAGGAUAUGCUGAAAAAACACUGGAAACAGUGCAGCAGAAGGUACAAAGA [Mat - Exclusion 1 - Eli mod - D99] | 43.3
40 | AGUUGGCGAGGAUAUACAUGAGGAUCACCCAUGUAAAAUAAAUAAAAAAUAAGGGAAAGUAGAAGGCGCUGACA [73%, Moding Norbert Elias, 14] | 112
41 | AACAGUACAGGAUAUACAUGAGGAUCACCCAUGUAAAGGGAAUAAAACUAAAAUAAAAGUAGAAGGGUACUGGA [Moding Maslow revisited (73) 20] | 92.6
42 | AAGAAGUGAGGAUAUGCUGCUCGUCACUUGCGUGAUGAGUAGCAGAAGGCACAUGAGGAUCACCCAUGUAAAAA [Mat - Exaclusion 4 - Eli mod - D2] | 45.7
43 | AGUCAGAGAGGAUAUACAUGGAAAAAAAAAGUAAGAUCCCUACAUGAGGAUCACCCAUGUAGAAGGCUCUGACA [Ex2 Design 138: Sub-opt 2] | 13.2
44 | AAGAAACAUGAGGAUCACCCAUGUGAGGAUAUACAAAAGAAAAGAAAAGAAAGAAGAAGUAGAAGGCACAAAGG [Djedkare Shemai] | 20.3
